The text below walks through data of publication PMC6310021.

The target of the experiment is purified rat recombinant TG2 protein (transgelin-2) (rat) (UniProt Q5XFX0). The experiment is described as follows: SPR.
purified rat recombinant TG2 protein (transgelin-2) (rat), sequence (Q5XFX0 whole entry): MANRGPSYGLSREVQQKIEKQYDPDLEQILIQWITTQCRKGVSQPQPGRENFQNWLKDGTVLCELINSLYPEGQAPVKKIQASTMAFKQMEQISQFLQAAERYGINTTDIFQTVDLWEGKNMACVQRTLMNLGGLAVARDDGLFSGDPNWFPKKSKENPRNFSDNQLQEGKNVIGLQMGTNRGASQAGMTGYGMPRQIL

As for “ezrin (analyte in Biacore surface plasmon resonance) (from UniProt P31977 1-586) (natural protein)”, the Kd was 73.3 nM.
